Measurements published in IntAct's records for PubMed 17070805.

B1: RING1 and YY1-binding protein (Homo sapiens), Q8N488 (parent)
chain: MTMGDKKSPTRPKRQAKPAADEGFWDCSVCTFRNSAEAFKCSICDVRKGTSTRKPRINSQLVAQQVAQQYATPPPPKKEKKEKVEKQDKEKPEKDKEISPSVTKKNTNKKTKPKSDILKDPPSEANSIQSANATTKTSETNHTSRPRLKNVDRSTAQQLAVTVGNVTVIITDFKEKTRSSSTSSSTVTSSAGSEQQNQSSSGSESTDKGSSRSSTPKGDMSAVNDESF

Variants of: B1
Settings: with ubc_human UBC

Row | effect of a mutation on the interaction | Variant
1 | disrupting interaction | MTMGDKKSPTRPKRQAKPAADEGFWDCSVCAARNSAEAFKCSICDVRKGTSTRKPRINSQLVAQQVAQQYATPPPPKKEKKEKVEKQDKEKPEKDKEISPSVTKKNTNKKTKPKSDILKDPPSEANSIQSANATTKTSETNHTSRPRLKNVDRSTAQQLAVTVGNVTVIITDFKEKTRSSSTSSSTVTSSAGSEQQNQSSSGSESTDKGSSRSSTPKGDMSAVNDESF [T31A;F32A]

Variants of: B1
Settings: with ubc_human UBC
Remark: another data set of the same source

Row | effect of a mutation on the interaction | Variant
2 | disrupting interaction | MTMGDKKSPTRPKRQAKPAADEGFWDCSVCAARNSAEAFKCSICDVRKGTSTRKPRINSQLVAQQVAQQYATPPPPKKEKKEKVEKQDKEKPEKDKEISPSVTKKNTNKKTKPKSDILKDPPSEANSIQSANATTKTSETNHTSRPRLKNVDRSTAQQLAVTVGNVTVIITDFKEKTRSSSTSSSTVTSSAGSEQQNQSSSGSESTDKGSSRSSTPKGDMSAVNDESF [T31A;F32A]

Variants of: B1
Settings: with RING1, Q06587-2
Sequence of RING1, Q06587-2 (Q06587 30-406): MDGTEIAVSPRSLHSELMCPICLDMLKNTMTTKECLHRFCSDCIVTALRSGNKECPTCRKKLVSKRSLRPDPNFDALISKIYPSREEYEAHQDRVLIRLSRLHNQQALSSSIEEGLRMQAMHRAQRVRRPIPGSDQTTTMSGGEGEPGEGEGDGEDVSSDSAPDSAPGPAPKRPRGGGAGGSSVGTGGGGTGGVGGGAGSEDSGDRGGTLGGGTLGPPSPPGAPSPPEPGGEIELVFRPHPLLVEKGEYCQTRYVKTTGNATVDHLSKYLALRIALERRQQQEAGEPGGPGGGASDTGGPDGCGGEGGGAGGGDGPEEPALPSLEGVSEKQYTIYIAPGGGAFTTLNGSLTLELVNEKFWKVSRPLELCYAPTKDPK

Row | effect of a mutation on the interaction | Variant
3 | disrupting interaction | MTMGDKKSPTRPKRQAKPAADEGFWDCSVCAARNSAEAFKCSICDVRKGTSTRKPRINSQLVAQQVAQQYATPPPPKKEKKEKVEKQDKEKPEKDKEISPSVTKKNTNKKTKPKSDILKDPPSEANSIQSANATTKTSETNHTSRPRLKNVDRSTAQQLAVTVGNVTVIITDFKEKTRSSSTSSSTVTSSAGSEQQNQSSSGSESTDKGSSRSSTPKGDMSAVNDESF [T31A;F32A]
